# Experiments:
# [1] = Comparative studies: nasal insulin with various materials with and without starch microspheres; type: in vivo; conditions: sheep; for decrease in plasma glucose and increase in absorption versus starch microspheres alone: nasal powder
# Method: A series of studies were carried out to determine the effect on the administration of insulin of various enhancers with and without microsphere particles. All of the studies were carried out in sheep and the insulin was administered intranasally either in solution or powder formulation. The preparation of the various insulin formulations and the method of administration and result taking were all as described earlier.
# [2] = Bioavailability enhancement by microspheres plus bioavailability increasing material (general statement); conditions: microspheres with lysophosphatidylcholine
# Description: The material selected for these studies has been lysophosphatidylcholine (described above).
# [3] = without enhancer; cited from earlier work
# [4] = intranasal with Laureth 9; cited from earlier work
# [5] = nasal, sodium deoxycholate; cited from earlier work
# [6] = dogs, powder with cellulosic material and Carbopol 934; cited from earlier work
# [7] = rats, nasal polyacrylic acid gel, versus normal formulation; cited from earlier work
# [8] = Insulin nasal in sheep, plasma glucose and plasma insulin
# [9] = intranasal simple solution, 2 IU/kg
# [10] = intranasal solution with 0.2% LPC
# [11] = intranasal starch microspheres and LPC
# [12] = intranasal starch microspheres and LPC, 2 IU/kg
substance,measurement,setting,value
insulin: Zn-crystallized highly purified semisynthetic human insulin (sheep studies),shape of absorption profile,[1]; nasal,sharp peak
same,plasma glucose level versus insulin in GDC solution,"[1]; nasal 2 IU/kg, GDC 0.08 mg/kg and starch microspheres 2.5 mg/kg",decreased considerably more
same,absorption (plasma insulin levels),"[1]; nasal 2 IU/kg, GDC and starch microspheres",enhanced absorption
same,decrease in plasma glucose and increase in absorption versus starch microspheres alone,[1]; starch microspheres with N-acetyl cysteine,considerably increased
same,decrease in plasma glucose and increase in absorption versus starch microspheres alone,[1]; starch microspheres with aprotinin,considerably increased
same,effect on plasma glucose levels versus LPC-M alone in solution,"[1]; nasal, LPC-M and starch microspheres",considerably increased effect
same,"enhancement concept, outcome",[2],successful
same,absorption efficiency across the nasal membrane,[3],about 1.2 % of the administered dose
same,appearance of peak level,[4],rapidly
same,dose response,[4],clear dose response relationship
same,effect of increasing amounts of bile salt on absorption,[5],striking effect
same,absorption after nasal application,[6],increase the absorption
same,plasma glucose levels,[7],significant decrease
same,shape of plasma glucose profile versus intravenous insulin,[8]; intranasal insulin-microsphere-enhancer system,very similar to the one obtained for the intravenous insulin
same,amount of insulin absorbed,[8]; [9],very low
same,effect on plasma glucose level,[8]; [9],does not have a significant effect
same,amount of insulin appearing in the circulation,[8]; [10],increases the amount of insulin appearing in the circulation
same,plasma glucose level,[8]; [10],somewhat lower
same,decline of insulin level after peak,[8]; [11],decreases rapidly as for intravenous insulin
same,relative bioavailability versus subcutaneous injection,[8]; [11],about 25%
same,time of peak insulin level,[8]; [11],15 to 20 min
same,increase in AUC of plasma insulin versus simple nasal solution,[8]; [12],693%
same,increase in peak insulin level versus simple nasal solution,[8]; [12],1040%
